Columns and labels:
[1] = target: GHR constructs with one of seven amino acids of the UbE motif (indicated as underlined in …) mutated to alanine; test: pull-down of 35S-labelled β-TrCP on GH-GHR beads, background (GHR 1-286) subtracted
GHR and β-TrCP = test: Inhibition of the interaction between GHR and β-TrCP; format: binding

Sequence of in vitro-translated- and 35S-labelled-TrCP2 (Q9UKB1 whole entry): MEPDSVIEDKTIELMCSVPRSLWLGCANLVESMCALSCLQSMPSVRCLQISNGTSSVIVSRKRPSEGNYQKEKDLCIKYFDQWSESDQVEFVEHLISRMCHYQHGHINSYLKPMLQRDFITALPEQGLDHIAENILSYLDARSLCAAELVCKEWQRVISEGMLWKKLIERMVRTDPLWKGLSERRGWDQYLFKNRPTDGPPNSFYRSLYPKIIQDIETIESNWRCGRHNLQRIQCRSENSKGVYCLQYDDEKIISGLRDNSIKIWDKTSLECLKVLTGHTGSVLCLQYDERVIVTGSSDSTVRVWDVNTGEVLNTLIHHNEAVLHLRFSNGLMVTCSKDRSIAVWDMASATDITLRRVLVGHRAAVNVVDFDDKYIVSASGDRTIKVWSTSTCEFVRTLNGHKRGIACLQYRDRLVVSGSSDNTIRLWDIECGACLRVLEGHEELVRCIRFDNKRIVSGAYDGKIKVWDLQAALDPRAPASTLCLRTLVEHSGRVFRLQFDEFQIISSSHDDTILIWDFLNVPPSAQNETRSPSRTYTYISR

| Molecule | inhibition of binding as compared to wtGHR [1] [%] | inhibition of F-box protein (β-TrCP) interaction with ubiquitin/proteasome binding site of GHR (GHR and β-TrCP) |
| --- | --- | --- |
| in vitro-translated- and 35S-labelled-TrCP2 | > 60 |  |
| KQQRIKMLILPPVPVPKIKGIDPDLLKEGKLEEVNTILAIHDSYKPEFHSDDS WVEFIELD (61 amino acid peptide of GHR, residues 270-331) KQQRIKMLILPPVPVPKIKGIDPDLLKEGKLEEVNTILAIHDSYKPEFHSDDSWVEFIELD |  | capable of providing inhibition |

Source: patent US8034786B2, “Methods and means for controlling the endocytosis and subsequent degradation of growth hormone receptor” (Recharge B.V., priority 2005, dated 2011)
